Experimental data: a protein production outcome set (Wang et al. 2014)

Test: label from the status in PepcDB records
In the case of “MATCIWLRSCGARRLGSTFPGCRLRPRAGGLVPASGPAPGPAQLRCYAGRLAGLSAALLRTDSFVGGRWLPAAATFPVQDPASGAALGMVADCGVREARAAVRAAYEAFCRWREVSAKERSSLLRKWYNLMIQNKDDLARIITAESGKPLKEAHGEILYSAFFLEWFSEEARRVYGDIIHTPAKDRRALVLKQPIGVAAVITPWNFPSAMITRKVGAALAAGCTVVVKPAEDTPFSALALAELASQAGIPSGVYNVIPCSRKNAKEVGEAICTDPLVSKISFTGSTTTGKILLHHAANSVKRVSMELGGLAPFIVFDSANVDQAVAGAMASKFRNTGQTCVCSNQFLVQRGIHDAFVKAFAEAMKKNLRVGNGFEEGTTQGPLINEKAVEKVEKQVNDAVSKGATVVTGGKRHQLGKNFFEPTLLCNVTQDMLCTHEETFGPLAPVIKFDTEEEAIAIANAADVGLAGYFYSQDPAQIWRVAEQLEVGMVGVNEGLISSVECPFGGVKQSGLGREGSKYGIDEYLELKYVCYGGL”, the protein production is reported as “failed”.
With “MATEKYHEILKKYFLSFETGDFSQVQFSCNLEFLSPISGNTLKGTEEVIPFLKGVTTRVAEVNIMSTTVEYPRASGVWQMRTTKGTLYTLHNFFRLDEEGIVYVWPMFDPKAVMENPDALIQWLTGKDY” the protein production was “not failed”.
In the case of “MATFFFKTNYYQEIMLKRIFFLMIFFVSQTMASVFTHEEVQILKKHFLNNFQTNGAIVASPSQYNPNYYYDWIRDSAIAMGLVETWYEASQSARYKKLLLEYVSWTEKIQHQADPIAGQDILGEPKFYINGNPFDGEWGRPQNDGPALRASVLIRFAQQLLDHNEIDYVKSHLYNNTMDPQSMGTIKMDLEYIAHHWQDANFDLWEEVYGHHFFTAMAQQKALTDGAILAHQLHDRQAAVFYEMQANLINSRLKQHLDHQNKIIQATLLPHPGPQKTLELDSSVMLGILINPQKEGVFAPHHTFVQNTAKALHEQFNLMFPINKNRSGAILFGRYPGDTYDGYQTNSIGNPWFILTATMAEYYFTMAHNLSPNSINKLHIQNYLKKGDNYLRLIKQYGPDLNLSEQINLNTGVQQGATSLTWSYVSVLRAIHLREQLENRIKTTGWNTY”, the protein production is reported as “failed”.
With “MATFMTEDFLLKNDIARTLYHKYAAPMPIYDFHCHLSPQEIADDRRFDNLGQIWLEGDHYKWRALRSAGVDESLITGKETSDYEKYMAWANTVPKTLGNPLYHWTHLELRRPFGITGTLFGPDTAESIWTQCNEKLATPAFSARGIMQQMNVRMVGTTDDPIDSLEYHRQIAADDSIDIEVAPSWRPDKVFKIELDGFVDYLRKLEAAADVSITRFDDLRQALTRRLDHFAACGCRASDHGIETLRFAPVPDDAQLDAILGKRLAGETLSELEIAQFTTAVLVWLGRQYAARGWVMQLHIGAIRNNNTRMFRLLGPDTGFDSIGDNNISWALSRLLDSMDVTNELPKTILYCLNPRDNEVLATMIGNFQGPGIAGKVQFGSGWWFNDQKDGMLRQLEQLSQMGLLSQFVGMLTDSRSFLSYTRHEYFRRILCNLLGQWAQDGEIPDDEAMLSRMVQDICFNNAQRYFTIK” the protein production was “not failed”.
In the case of “MATGLGFFKLSFLLSLLSGGSDLLGPDAESGVAQIGKFPPSCNRIECPSYELVHSGNGYEIRRYNNTVWVSTEPIPDISLVDATRTAFFQLFAYIQGKNEYHQKIEMTAPVISQVSPSDGPFCESSFTVSFYVPKKNQPDPAPSENLHIQKWNSRYVAVRQFSGFVSDDSIGEQAAALDSSLKGTAWANAIAKSKEDGGVGSDSAYTVAQYNSPFEFSGRVNEIWLPFELDV”, the protein production is reported as “failed”.
In the case of “MATGTATEKPKIVWNEGRHRFETDDHEAFIEYKMKNDGKVMDLVRTFVPPSKAGLGLASHLCVAAFEHASEHSFSIIPTCSYVSVYISSFLKKLR”, the protein production is reported as “failed”.
In the case of “MATLLGFSQTKFHHCGVWISTPPCSSSSTVVSMVGLNRTDSKKLRSDFLGQIGYEDRRQVRHSYCRSSLAVKMSWDGPLASVKLIIQGKNLELSEPIKQHVEEKVGKSVQKHSHLVREVDVRLSVRGGEFGKGPRIRRCEVTLFTKKHGVVRAEEDAETVYACIDLVSTIIQRKLRKIKEKDSDHGRHMKGFNRLKVREPVIEPVVEDVEDSTDSSVGEEEEEDDLIKEIVRTKTFEMPPLTVAEAVEQLELVSHDFYGFQNEETGEINIVYKRKEGGYGLIIPKKDGKAEKVEPLPTEQLNEHSFAE”, the protein production is reported as “failed”.
For “MATLPAAETWIDGGGGVGADAVNLTASLAAGAATGAVETGWLQLLDQAGNLSSSPSALGLPVASPAPSQPWANLTNQFVQPSWRIALWSLAYGVVVAVAVLGNLIVIWIILAHKRMRTVTNYFLVNLAFSDASMAAFNTLVNFIYALHSEWYFGANYCRFQNFFPITAVFASIYSMTAIAVDRYMAIIDPLKPRLSATATKIVIGSIWILAFLLAFPQCLYSKTKVMPGRTLCFVQWPEGPKQHFTYHIIVIILVYCFPLLIMGITYTIVGITLWGGEIPGDTCDKYHEQLKAKRKVVKMMIIVVMTFAICWLPYHIYFILTAIYQQLNRWKYIQQVYLASFWLAMSSTMYNPIIYCCLNKRFRAGFKRAFRWCPFIKVSSYDELELKTTRFHPNRQSSMYTVTRMESMTVVFDPNDADTTRSSRKKRATPRDPSFNGCSRRNSKSASATSSFISSPYTSVDEYS”, the protein production was “failed”.
For “MATRFDVKTIVKDKRFWIASFIIVWAAGLQGHMMWLQKQESFKQKFGTIDEDDHK”, the protein production was “failed”.
For “MATTTSAACPIFSLSLLGRFVLTGPDGAVSLPNKKLAGLLAFLACMAPDPQSREKLSTLLWGSYLDAQAKQNLRQALFKLRQILGQDALRSDGELVSLNAMVIACDVSQFEELVQDGSRDALSAAADLYRGRLADDISVGEECWSEWVAGERERLSELALGAMVTLGGHELSEGRAEQALRTGQRANALNNLREDSHRLIMRALSATGRNAEALKYYRDVVALLKRELSTEPDLATRSLAAELRSNHPQNAAPAAGEVAPEASPPPALVMHGERPSLVVLPFSNMSGDPEQDYFADGVTADIITALSRFRALVVIARGTSFALRDKGMTSQQIAQQLGVQYVLSGQIRKAGNRIRVSAELTHSGSEAQVWSDRYDRPLTDIFDLQDDVSSSVAAVVDPAVRSAEIERARRKPPTNLSAYDLYLRALHHLWGGTREDITKAIDLLRQSLSLDEARSPTLAALAWGLVMASPLGAHTSPDATTEALSLARRAVEQDGTDAFAHAVYGFTLFGPAGDNDQGRIHAVEAVRLNPSSAFAWGTLGMIDSMAGDYENAVTCLHRSLVLSPYDSMLHLWMTGLTASCFALGRHEDGIAWARKSVQHNPGNGTGHRMLAANLVAAGRLEEAREITRRRDATQKTTIRDLRAMRFFKQNDALERYLSAQQVAGVAD”, the protein production was “failed”.
In the case of “MATVAECNHSVLDLVTKMATMLVADEMKPKKQTAVLVAKKRSKIYESLLHSETMSSQDKLEMLHQVTSEVAKNPDRMDMLLRFQNLLEGQDKEESEITQDQDEENQSEVVIKRIKAGPLQLIETIEIVEEALHPKAFPDINQMNRALKPLQLQPYSDILTTSNLNINFPPEKLIPKIIPSTVIRMGLSESITRMRNEMEKPMHPPPRLPVLAKKVVAPLEDERPFVAQPGPEKHFVSDKLLTNELKILRNKNLVLNYLDEATLIDHLKKAACGIESLTFPISSADKLELRVRPNTTLPTMLPEVLADFANHFIRAGCAFLRLSSRTKWNNIAEMRLERPLNRAMRETIMDYLSTTRQFLLSLQADSLFQLLNNTSTAIQLLCQLDRMFENEPRLNLNTGITGSFLLSSIWLAIDTCGNKDFLHLLIYFLRCISRNYFIQLQRWIYHGELDESVNEIFISRCLNTSPSFTNQCSKEFFDKSYQVDNEAIPEFLVGCEEEILQCGKYNLVLRAYNAQHPVFDVQYPDIVVCLTEQQLKNMRRNLADKYAIIYKRFGWCSMQSIFEDRMATKRVFANLMVKRTQAHLDAWAQKQRELQIKANAQKKLQNDQLNAEQERIQQNHLEKRRQDIVNELAFQRECERMEDKLLEREKQELQKKVVQLAAVLSSSPDRSTVSDLSFASCIEEPDCLAESSSDKDDANTENSEDEATKQLDKTLNVPLEQPEAEYQADVDVDQPRGKECSLPNVFQYQRSHSDVINSNEHPTTQAEFNRNRQHGLSSDQFQQCHATVHLQESDLLKTAASTSSGLHAEIPQDINANLNCPDTKELTELQRNRKRNEHHDGFFSFNSTEDEHTHRLRSLLNSNTERGRNRLRVMETEFGLGYKNTDIETKATPCLPLEIDKLHVEIPLAVLTPMSTTSDVDFGDPSPRELPEIADTANNNNVSGSIESLSPELPKPVLAIAKPTSLLPKLDFGMKDERETEQDRDKVSTLPEACNPFMARRCLQLSVMAPLNAYYGLLRNEVLRIFQEQRIYEHFRKLRNYFFLVDGQFGATLTNEILGRIRAGVGPRSLSQKGILDTILTNALAACSADETTVSENLTLNCTTIPDTLNFLSVEATSMLKLNCKIDWPLNMVISSETISKYGQIFGYLLKLRHVSFVLDGTYEYLQQMGKLLGPELRTCTHFRHMQMMRHKMSHFMTSFQTHLVAKALLSTWKSFKEELCTADSIEALYKQHVAYLKRVAFLALLNRRSAKVKETIDNILVIILRFCKVIQSQSFIVDQDNYFVHPRFKRLQQEEAEFEKFLQYLIYLGNKAAASGYQEEIGDLICIINFNHYYKVSGNHTGSSMEDKKC”, the protein production is reported as “failed”.
In the case of “MATVRLVTRKRAGRSSRPSAASLPARSAVERNSSGPLLSKSRYVRIMAARRSSSLRQQQGRLEWGGRSRPVELATRSFEKQGDATAFFKAMLNRHQPGERVSDEDGLDVAALLERHTEYVAKVGCGVSHFQVMMTEHGTQCFRIIRTDGSGTDFSYPHCISQRPPSRKQEVAQAFRRAVRFDLYKARDNLFATHSGSDGLVSCAVTGERIAQDEGHMDHRPPMTFEVIVTTFLCGRGLSLDNVPLTTGKDDQVSPEVTDNALSEAFRAYHAGIARLDFVRNTVNLAQASRHRLKDGRITLTG”, the protein production is reported as “failed”.
With “MAVAALLPQRPTSLEISMEGETFLWLIRHAPVDGVAGTIHAPDAPADLGDRAQLQALRQRLPRDSASYASPSRRTVETARALGLEPDLVGNFSEQDFGDWTGRRHDELAASGGEAYAQFWGDPAHARPPGGESFEDQVARVRHGLSRIGAGPATLVVHSGTIRAALCIALDLAPQSALRFVIDPLSLTRIDRLATGWRVVSVNQRVV” the protein production was “failed”.
With “MAVAQADPGSDPAGGARFFCTAGRGLEPFLMREVRARLEATQVEYISGKVFFTTCSDLPSMKKLKSAERLFVLIKKQLPIAVSSLHKGKILNEMQRFVNDDPGSWLEAISLWKKLLEHDPKREKVSQRDANPLKRKAGENETIIAKKLKVEEKQEVAKDHGESQEDKLLQGSPEQGEAVTRTELQDHRLNSTTEKAADAQDQEDLTFRVSCRCTGNVRKVITGQEAGRVIGLALMRQFGWKADLRNPNIEIFMHLSDAYSVVGIPLLRMPLASRTYIQTAGLRSTIAWAMASIAEIKAGALVLDPMCGLGTILVEAAEEWPDVFYMGADMSDAQLLGACDNLKAAGLTDRIELLKSSVTDLPLPSQSTDVIISDIPFGKKFKLGKDIKSILQEMERVLRVGGAMVLLLSEDHHRHLTDCGGSSIPLTSKGHIAEPEMKTLSNPDRTGAPDTASPSQRASSVQCLGRMRPCGSLVPVESFKVSLGKTDAFICKYKKAQASGLSSAECHEPGAHTEMAAMQESPSLQDSL” the protein production was “failed”.
With “MAVISPATRFAPPLNRPFHRRSILASFHSSSRNFLFLGKPTPSSTIVSVRCQKPVSDGVSSMESMNHVASSVSSSIDFLTLCHRLKGINGPESIADHMYRMALMALIAGDLTGVDRERCIKMAIVHDIAEAIVGDITPSDGVPKEEKSRRETAALKEMCEVLGGGLRAEEITELWLEYENNASLEANIVKDFDKVEMILQALEYEAEHGKVLDEFFISTAGKFQTEIGKSWAAEINARRKSQLTNRQR” the protein production was “failed”.
In the case of “MAVKFFGQFLVEKGVVSRETLLQAIELQESVNLSFGATSLAMGILTEADIERIHNAQRIEDLRFGDMAVKLGLLTSEQMMQVLTRQKNTHLYIGEALVKVGSFQADELPKYLEEFKADQAQYATDTVVIPTGVSEPKIWEMVADLSYKMLTRVALLVFRPEPCFVADRVPAMDVYATMDFTGDISGRYFMGVTAATQKKIAKAILKEPNVDNEPKEILDDTVMEFVNVALGNIAAKAAQSGKSMEIAPPEIIEAPDGIQVPDGHKALCFPVCLSDGDRIELAVFIQQLEHHHHHH”, the protein production is reported as “not failed”.
With “MAVMDPWLIWLIVSAVLVLAEIFTLTAALGMLGVAALITAGSAAAGLSTPFQFLVFTVVSAVTLFFLRPVALRHLVQPQTQRFGVDALVGQAAYVVSDVTGREGRVRIGGEEWTARSYDETLVIPRGATVDVLEISGTTAFVYPRE” the protein production was “failed”.
